Reference: paper PMC12229972 (EJNMMI Radiopharmacy and Chemistry, 2025)

Experiments:
[1] = dynamic PET/CT imaging after cisterna magna infusion; assay type: in vivo, Sprague–Dawley rats; conditions: rats
[2] = dynamic PET/CT imaging after lumbar infusion; assay type: in vivo, Sprague–Dawley rats; conditions: rats

Al[^18F]F-7: aluminum [18F]fluoride restrained complexing agent (RESCA) conjugated rat serum albumin (RSA) reference tracer
Cmax (maximum SUV), cervical and thoracic (T1-T2) vertebra (spinal canal) ([1]; geometric mean (CV), listed as 7): 4.5(17%) SUV
tmax, cisterna magna ([1]; median(range)): 20(0) min
Cmax, intracranial space (ICS) [2]: 0.27 %ID
tmax, lumbar vertebra L1-L2 ([2]; median(range)): 25(35) min
